Reference: the supplement of paper PMC10567573

B1: FBXO3 (parent)
chain: HDPLWRRHCKKYWLISEEEKTQKN
B2: SPATS1 (parent)
chain: YPEQSKGFHKAGSMLPPVNFSIVP

Variants of: B1
Experiment: protein stability index of a GFP-peptide fusion (GPS, HEK-293T) (PSI 1-6); higher = more stable
Details: c terminus: a fixed tail appended
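Also: lentivirally expressed fusions sorted by FACS into six bins by GFP to DsRed ratio, PSI derived from sequencing read proportions per bin multiplied by bin number.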

Protein stability index of substitutions, site by site:
E19: A 2.83; K 2.92; L 2.35; H 2.91; P 2.98; R 2.94; D 3.17; Q 3.26; Y 2.54; I 2.38; V 2.67; N 2.88; C 2.84; G 3.05; S 3.05; T 2.71; F 2.04; M 2.66; W 1.9
K10: R 3.06; G 3.41; N 3.51; F 2.77; A 2.91; Q 3.28; V 2.57; I 2.02; P 4.06; H 3.27; T 2.71; W 2.95; M 2.28; D 4.05; L 2.34; Y 2.52; E 3.81; C 2.27; S 3.32
S16: Y 2.72; H 3.09; E 3.8; K 3.21; N 3.5; P 3.77; R 3.27; V 2.73; F 2.46; M 2.99; C 2.99; Q 2.99; L 2.72; W 2.52; G 2.95; D 3.84; I 2.4; T 3.51; A 3.21
Y12: P 3.78; C 3.4; Q 3.61; W 3.12; L 3.74; E 4.48; S 3.91; R 3.59; K 3.89; V 3.83; H 3.72; G 3.74; A 3.44; T 4.13; D 4.63; N 3.58; F 3.22; I 3.48; M 2.98
E18: S 3.01; V 2.5; R 2.81; P 2.91; M 2.28; F 2.55; A 2.55; K 3.04; G 2.75; I 2.46; T 2.89; N 3.15; Q 2.94; H 3.3; L 2.46; Y 2.31; D 3.2; C 2.95; W 2.38
N24: V 3.02; F 2.47; Q 3.43; Y 2.44; W 2.47; I 2.48; G 2.61; K 2.79; R 3.22; L 2.81; E 3.12; D 3.68; A 2.9; P 3.87; C 2.73; T 3.47; S 2.91; H 2.99; M 3.4
I15: M 3.16; W 3.19; C 3.73; G 3.69; D 3.69; S 3.62; R 4.68; P 3.68; Q 3.68; T 3.61; V 3.85; E 3.88; Y 3.21; K 3.47; H 2.72; L 3.44; A 3.38; N 3.67; F 3.38
E17: V 2.23; A 3.41; Y 2.62; P 3.52; K 3.31; D 3.48; L 2.47; I 2.31; Q 2.98; W 2.37; N 2.98; C 2.64; F 2.56; T 3.1; H 3.05; G 3; R 3; S 3.26; M 2.22
C9: Q 3.9; I 3.58; W 3.16; F 2.65; R 3.68; M 2.55; G 4.08; E 4.37; A 3.57; H 3.42; P 4.15; S 3.27; K 3.59; D 4.83; L 2.93; V 3.8; T 3.7; N 4.14; Y 3.31
K23: W 2.7; Q 3.27; M 3.19; G 3.65; T 3.31; P 3.11; N 3.05; I 2.93; F 2.85; V 3.6; E 3.8; Y 2.91; S 3.38; L 2.94; D 3.95; R 3.16; H 3.24; A 3.34; C 3.09
Q22: M 3.01; P 3; K 2.89; R 2.95; I 2.49; W 2.05; L 2.57; C 2.79; D 3.35; A 3.29; H 2.99; V 3.44; N 3.19; E 3.42; Y 2.58; S 2.97; G 3.18; T 3.42; F 2.56
W13: R 3.46; P 4.21; D 4.38; C 3.67; L 3.84; I 3.91; F 3.85; K 4.65; S 3.97; G 4.26; T 4.22; A 4.04; Y 3.19; N 4.37; V 3.85; M 3.76; Q 4.28; E 4.52; H 4.21
T21: L 2.76; C 3.39; W 2.44; N 2.95; D 3.25; Y 2.74; R 2.83; H 2.86; E 3.31; F 2.64; S 3.03; G 2.91; I 3.29; P 3.32; A 2.84; Q 3.21; M 2.63; K 2.94; V 2.99
L14: Y 3.56; C 3.3; F 3; M 3.27; D 3.98; E 3.77; V 3.27; S 3.88; G 3.79; R 3.3; I 2.99; W 3.31; T 3.65; N 4.4; Q 3.58; P 4.11; A 3.57; K 3.53; H 3.49
K11: L 1.93; G 2.7; M 2.44; T 2.71; D 3.12; A 3.6; S 2.79; P 2.67; Y 2.31; W 2.41; V 2.28; H 3.26; C 2.63; E 3.59; N 2.65; Q 3.45; I 2.27; R 3.35; F 2.4
H8: Q 3.72; Y 2.2; T 2.79; R 3; V 2.56; S 2.73; W 1.88; P 3.4
K20: E 3.64; R 3.38; G 3.51; Y 2.71; W 2.33; F 2.6; N 3.24; C 2.9; L 2.88; T 2.89; D 3.35; S 3.2; H 2.95; A 2.85; Q 3.66; P 2.91; V 3.29; M 3.03; I 2.58

Variants of: B2
Experiment: as above
Details: c terminus: a fixed tail appended

Protein stability index, by site and new letter:
Y1: V 3.31; M 2.97; A 3.35; W 2.69; F 2.03; P 3.33; I 2.77; L 2.66; G 3.26; K 3.38; D 3.82; H 3.18; S 3.36; Q 3.43; E 3.8; T 3.22; R 3.04; N 3.52; C 2.95
P2: A 1.85; C 1.62; D 3.19
